From patent publication US20250000945A1, “Suppression of Neurodegeneration with Zinc Transporter Protein 7” (The Regents of the University of California, priority 2021, published 2025)

Legend:
border cells = test: Border cell migration in stage 10 egg chambers expressing Catsup RNAi (rescue by co-expressed transgenes); assay type: in vivo, Drosophila; settings: co-expressed with Catsup RNAi in border cells
Source text: Border cell clusters are composed of 4-6 migratory cells that surround and carry two non-migratory polar cells. Expression of a Catsup RNAi line in outer, migratory border cells using fruitlessGal4^51 inhibited migration (FIG. 2A). The defect was rescued by co-expression of UAS-CatsupV5 (FIG. 2B). Reduction of Catsup::GFP confirmed the effectiveness of the RNAi (FIGS. 2C, C′ and 2D, D′). Border cell migration was also impaired when Catsup RNAi was driven by c306Gal4 (FIG. 2E), which is expressed in both polar and migratory cells.
ZIP7 resides in the ER membrane and transports Zn^2+ from the ER to the cytosol^64. To test whether the Zn^2+ transporter activity of Catsup was important for border cell migration, we introduced point mutations, H315A and H344A, which replace histidine residues that are required for Zn^2+ transport and are conserved between Catsup, ZIP7 and a more distant family member from Arabidopsis IRT1. […] We generated transgenic flies expressing the mutants under Gal4/UAS control and included a V5 tag so that we could monitor protein abundance and localization. We then co-expressed each of these RNAi-resistant transgenes with CatsupRNAi and evaluated protein expression and border cell migration (FIGS. 5B-5E). […] All the proteins were stably expressed and correctly localized to the ER (FIGS. 5B-5E), therefore the lack of rescue was likely a consequence of impaired transporter activity rather than impaired expression, localization, or another function. […] From these experiments, we conclude that Zn^2+ transport is an essential function of Catsup in promoting ERAD.
Catsup mutant fly was generated by ethyl methanesulfonate (EMS) mutagen^37. The mutation results in glycine(G) to aspartic acid(D) replacement at amino acid 178. The FLP/FRT system was used to generate the Catsup^G178D homozygous mutant clones by combining FRT40A-Catsup^G178D with hsFLP12,yw;ubi:GFPnls, FRT40A or hsFLP12,yw;ubi:RFPnls, FRT40A/(CyO). Catsup::GFP expression pattern visualized by the line from VDRC 318542 in the fTRG stocks library. The UAS-CatsupRNAi transgenic line is from VDRC 100095 P{KK103630}VIE-260B. Wild type rescue w[*]; sna[Sco]/CyO; P{w[+mCJ=UAS-Catsup. V5}6 Bloomington 63229. Additional transgenic Drosophila stocks used: UAS-wRNAi/Cyo is a lab stock, UAS-PleRNAi Bloomington 25796 y[1] v[1]; P{y[+t7.7] v[+t1.8]=TRiP.JF01813}attP2, UAS-Ple is Bloomington 37539 w[*]; P{w[+mC]=UAS-ple.T}331f2, O-fucosyltransferasel Bloomington 9376 P{UAS-O-fut.}]1.1, UAS-Notch.Intracellular.Domain on third chromosome was a gift from Artavanis-Tsakonas lab^71. The ER stress marker UAS-Xbp1-EGFP.HG Bloomington 60731 w[*]; P{w[+mC]=UAS-Xbp1.EGFP.HG}3, UAS-HSC70-3 Bloomington 5843 w[126]; P{w[+mC]=UAS-Hsc70-3. WT}B. Catsup point mutations were cloned into vector pUASt-attb with forward primer ctctgaatagggaattggg[…] (SEQ ID NO:1) and reverse primer ccgcagatctgttaacgtca[…] (SEQ ID NO:2). The vector was injected to attp2 flies y1 w67c23; P{CaryP}attP2 by BestGene Inc.
When generating UAS-Catsup-point-mutations, we designed the construct so it cannot be targeted by the CatsupRNAi sequences by substituting redundant codons for the same amino acids within the region targeted by the RNAi. The RNAi resistant sequence is below with nucleic acid substitutions in lower case:
Point mutations were designed by changing codons at the following site CatsupH183A (CAC to GCC), CatsupH187A (CAT to GCT), CatsupH315A (CAT to GCT), CatsupH344A ([…]). […]

Notch and EGFR = test: Intracellular accumulation of Notch and EGFR in mosaic clones expressing CatsupRNAi; assay type: in vivo, Drosophila; settings: mosaic expression with CatsupRNAi
Source text: In wing imaginal disc epithelia, multiple transmembrane receptor proteins, including Notch and EGFR, accumulate abnormally in Catsup mutant cells^40. We similarly found abnormal intracellular accumulation of Notch in follicle cells generally (FIG. 3D, D′) and border cells specifically (FIG. 3E, E′) upon Catsup knockdown. […] As in imaginal discs, EGFR also accumulated abnormally in Catsup RNAi-expressing border cells (FIG. 3G, G′) and epithelial follicle cells (FIG. 3H, H′), whereas E-Cadherin was unaffected (FIG. 31, I′). From these observations, we conclude that Catsup prevents intracellular accumulation of particular transmembrane proteins and promotes Notch signaling, migration and survival in multiple cell types and organisms.
ZIP7 resides in the ER membrane and transports Zn^2+ from the ER to the cytosol^64. To test whether the Zn^2+ transporter activity of Catsup was important for border cell migration, we introduced point mutations, H315A and H344A, which replace histidine residues that are required for Zn^2+ transport and are conserved between Catsup, ZIP7 and a more distant family member from Arabidopsis IRT1. […] We then co-expressed each of these RNAi-resistant transgenes with CatsupRNAi and evaluated protein expression and border cell migration (FIGS. 5B-5E). […]

B1: O-fucosyltransferase-1: Notch specific chaperone, overexpressed from a UAS transgene (protein, UniProt Q9V6X7 24-402, looked up)
GDP-fucose protein …: QLGGDPNGYLTYCPCMGRFGNQADHFLGSLAFAKALNRTLILPPWVEYRRGELRSRQVPFNTYFEVEPLKEYHRVITMADFMWHLADDIWPESERVSFCYKERYSLQQEKNDPDKPNCHAKDGNPFGPFWDTFHIDFVRSEFYAPLHFDVHHSNEAAKWQTKYPAESYPVLAFTGAPASFPVQLENCKLQRYLQWSQRYREASKDFIREQLPRGAFLGIHLRNGIDWVRACEHVKDSQHLFASPQCLGYKNERGALYPELCMPSKEAIIRQLKRTIKNVRQTQPDNEIKSVFVASDSNHMIGELNTALSRMGISVHKLPEDDPYLDLAILGQSNHFIGNCISSYSAFEKRERDVHGFPSYFWGFPKEKDRKHTNVHEEL
- rescue of border cell migration defect (border cells): neither NICD expression nor overexpression of the Notch specific chaperone O-fucosyltransferase-1^58 was sufficient to rescue Catsup RNAi

B2: Catsup^H187A: V5-tagged RNAi-resistant Catsup point mutant that does not disrupt Zn2+ transport (control) (protein, UniProt Q9V3A4 1-449, looked up, variant H187A)
Protein catecholamines up: MAKQVADYQCSKLQLYQKLALVVILGAVLFSLPALCAGQGNPSFKYSREANENFDPQKAPRAEHHHHHDHDHDHGHHHHGHDHDHDHDHGHDHGHHHHGHDHDHDHDHGHHHHGHDERHTKAKPDLDMSTIWLHSIGSTLLISAAPFVLLYIIPLDNSEAMKPRLKVLLAFASGGLLGDAFLHLIPAATHPHSHGEHGHDHGHDHHHHHDGEEHEHGHSHDMSIGLWVLGGIIAFLSVEKLVRILKGGHGGHGHSHGAPKPKPVPAKKKSSDKEDSGDGDKPAKPAKIKSKKPEAEPEGEVEISGYLNLAADFAHNFTDGLAIGASYLAGNSIGIVTTITILLHEVPHEIGDFAILIKSGCSRRKAMLLQLVTALGALAGTALALLGAGGGDGSAPWVLPFTAGGFIYIATVSVLPELLEESTKLKQSLKEIFALLTGVALMIVIAKFE
modifications: V5 tag
- rescue of border cell migration defect (border cells): rescue border cell migration to nearly wild type levels
- rescue of accumulation of Notch and EGFR (Notch and EGFR): did

B3: Catsup^H315A: V5-tagged RNAi-resistant Catsup point mutant replacing a histidine required for Zn2+ transport (protein, UniProt Q9V3A4 1-449, looked up, variant H315A)
Protein catecholamines up: MAKQVADYQCSKLQLYQKLALVVILGAVLFSLPALCAGQGNPSFKYSREANENFDPQKAPRAEHHHHHDHDHDHGHHHHGHDHDHDHDHGHDHGHHHHGHDHDHDHDHGHHHHGHDERHTKAKPDLDMSTIWLHSIGSTLLISAAPFVLLYIIPLDNSEAMKPRLKVLLAFASGGLLGDAFLHLIPHATHPHSHGEHGHDHGHDHHHHHDGEEHEHGHSHDMSIGLWVLGGIIAFLSVEKLVRILKGGHGGHGHSHGAPKPKPVPAKKKSSDKEDSGDGDKPAKPAKIKSKKPEAEPEGEVEISGYLNLAADFAANFTDGLAIGASYLAGNSIGIVTTITILLHEVPHEIGDFAILIKSGCSRRKAMLLQLVTALGALAGTALALLGAGGGDGSAPWVLPFTAGGFIYIATVSVLPELLEESTKLKQSLKEIFALLTGVALMIVIAKFE
- rescue of border cell migration defect (border cells): neither Castup^H344A nor Catsup^H315A provided significant rescue

B4: Catsup^H183A: V5-tagged RNAi-resistant Catsup point mutant that does not disrupt Zn2+ transport (control) (protein, UniProt Q9V3A4 1-449, looked up, variant H183A)
Protein catecholamines up: MAKQVADYQCSKLQLYQKLALVVILGAVLFSLPALCAGQGNPSFKYSREANENFDPQKAPRAEHHHHHDHDHDHGHHHHGHDHDHDHDHGHDHGHHHHGHDHDHDHDHGHHHHGHDERHTKAKPDLDMSTIWLHSIGSTLLISAAPFVLLYIIPLDNSEAMKPRLKVLLAFASGGLLGDAFLALIPHATHPHSHGEHGHDHGHDHHHHHDGEEHEHGHSHDMSIGLWVLGGIIAFLSVEKLVRILKGGHGGHGHSHGAPKPKPVPAKKKSSDKEDSGDGDKPAKPAKIKSKKPEAEPEGEVEISGYLNLAADFAHNFTDGLAIGASYLAGNSIGIVTTITILLHEVPHEIGDFAILIKSGCSRRKAMLLQLVTALGALAGTALALLGAGGGDGSAPWVLPFTAGGFIYIATVSVLPELLEESTKLKQSLKEIFALLTGVALMIVIAKFE
modifications: V5 tag
- rescue of border cell migration defect (border cells): rescue border cell migration to nearly wild type levels
- rescue of accumulation of Notch and EGFR (Notch and EGFR): did
